Common to all, as to assay: cleavage_in_vitro
The test system of data set [1] is OMNI-110 (metagenomic, unknown). Particulars: TXTL; PAM NNRTNCNN
Data set [2] relates to T1, OMNI-99 (metagenomic, unknown).
T1 sequence: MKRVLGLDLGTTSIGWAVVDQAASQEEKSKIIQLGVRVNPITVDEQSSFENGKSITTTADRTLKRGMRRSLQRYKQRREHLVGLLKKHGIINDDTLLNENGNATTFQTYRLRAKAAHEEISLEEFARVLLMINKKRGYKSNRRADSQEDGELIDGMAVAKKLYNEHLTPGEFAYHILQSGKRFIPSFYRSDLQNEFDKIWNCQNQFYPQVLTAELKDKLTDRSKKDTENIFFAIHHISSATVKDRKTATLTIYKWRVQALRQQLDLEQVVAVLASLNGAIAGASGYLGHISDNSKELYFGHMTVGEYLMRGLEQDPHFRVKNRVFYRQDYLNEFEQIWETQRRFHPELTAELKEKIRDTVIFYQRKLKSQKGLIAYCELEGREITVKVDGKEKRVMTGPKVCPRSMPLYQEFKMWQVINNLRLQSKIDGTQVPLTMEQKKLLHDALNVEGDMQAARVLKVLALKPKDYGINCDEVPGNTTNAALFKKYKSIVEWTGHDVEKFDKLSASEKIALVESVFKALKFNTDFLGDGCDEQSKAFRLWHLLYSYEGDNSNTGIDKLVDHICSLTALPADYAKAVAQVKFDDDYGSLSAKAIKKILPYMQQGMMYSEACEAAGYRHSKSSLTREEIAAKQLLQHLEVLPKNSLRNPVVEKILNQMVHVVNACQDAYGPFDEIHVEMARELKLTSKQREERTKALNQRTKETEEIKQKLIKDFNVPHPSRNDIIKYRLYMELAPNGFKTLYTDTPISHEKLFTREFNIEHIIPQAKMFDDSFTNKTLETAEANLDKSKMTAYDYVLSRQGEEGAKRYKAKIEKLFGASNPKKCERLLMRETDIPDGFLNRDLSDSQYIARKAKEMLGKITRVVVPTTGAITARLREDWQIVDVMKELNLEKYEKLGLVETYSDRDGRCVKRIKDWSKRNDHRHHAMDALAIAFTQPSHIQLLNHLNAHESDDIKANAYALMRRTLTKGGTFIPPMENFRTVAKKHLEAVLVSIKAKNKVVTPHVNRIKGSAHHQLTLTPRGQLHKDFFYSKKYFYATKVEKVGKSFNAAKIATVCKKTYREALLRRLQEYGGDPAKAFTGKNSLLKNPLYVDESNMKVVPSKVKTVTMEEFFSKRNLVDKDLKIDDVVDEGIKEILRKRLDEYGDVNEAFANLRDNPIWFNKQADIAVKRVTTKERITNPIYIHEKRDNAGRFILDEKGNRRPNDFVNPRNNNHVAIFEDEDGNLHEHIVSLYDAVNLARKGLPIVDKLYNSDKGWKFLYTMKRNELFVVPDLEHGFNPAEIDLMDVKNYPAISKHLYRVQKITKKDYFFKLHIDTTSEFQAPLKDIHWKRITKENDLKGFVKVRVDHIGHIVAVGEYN
As to conditions: TXTL; PAM NAGACNNN

For data set [3], the system named is T2, OMNI-109 (metagenomic, unknown).
T2 sequence: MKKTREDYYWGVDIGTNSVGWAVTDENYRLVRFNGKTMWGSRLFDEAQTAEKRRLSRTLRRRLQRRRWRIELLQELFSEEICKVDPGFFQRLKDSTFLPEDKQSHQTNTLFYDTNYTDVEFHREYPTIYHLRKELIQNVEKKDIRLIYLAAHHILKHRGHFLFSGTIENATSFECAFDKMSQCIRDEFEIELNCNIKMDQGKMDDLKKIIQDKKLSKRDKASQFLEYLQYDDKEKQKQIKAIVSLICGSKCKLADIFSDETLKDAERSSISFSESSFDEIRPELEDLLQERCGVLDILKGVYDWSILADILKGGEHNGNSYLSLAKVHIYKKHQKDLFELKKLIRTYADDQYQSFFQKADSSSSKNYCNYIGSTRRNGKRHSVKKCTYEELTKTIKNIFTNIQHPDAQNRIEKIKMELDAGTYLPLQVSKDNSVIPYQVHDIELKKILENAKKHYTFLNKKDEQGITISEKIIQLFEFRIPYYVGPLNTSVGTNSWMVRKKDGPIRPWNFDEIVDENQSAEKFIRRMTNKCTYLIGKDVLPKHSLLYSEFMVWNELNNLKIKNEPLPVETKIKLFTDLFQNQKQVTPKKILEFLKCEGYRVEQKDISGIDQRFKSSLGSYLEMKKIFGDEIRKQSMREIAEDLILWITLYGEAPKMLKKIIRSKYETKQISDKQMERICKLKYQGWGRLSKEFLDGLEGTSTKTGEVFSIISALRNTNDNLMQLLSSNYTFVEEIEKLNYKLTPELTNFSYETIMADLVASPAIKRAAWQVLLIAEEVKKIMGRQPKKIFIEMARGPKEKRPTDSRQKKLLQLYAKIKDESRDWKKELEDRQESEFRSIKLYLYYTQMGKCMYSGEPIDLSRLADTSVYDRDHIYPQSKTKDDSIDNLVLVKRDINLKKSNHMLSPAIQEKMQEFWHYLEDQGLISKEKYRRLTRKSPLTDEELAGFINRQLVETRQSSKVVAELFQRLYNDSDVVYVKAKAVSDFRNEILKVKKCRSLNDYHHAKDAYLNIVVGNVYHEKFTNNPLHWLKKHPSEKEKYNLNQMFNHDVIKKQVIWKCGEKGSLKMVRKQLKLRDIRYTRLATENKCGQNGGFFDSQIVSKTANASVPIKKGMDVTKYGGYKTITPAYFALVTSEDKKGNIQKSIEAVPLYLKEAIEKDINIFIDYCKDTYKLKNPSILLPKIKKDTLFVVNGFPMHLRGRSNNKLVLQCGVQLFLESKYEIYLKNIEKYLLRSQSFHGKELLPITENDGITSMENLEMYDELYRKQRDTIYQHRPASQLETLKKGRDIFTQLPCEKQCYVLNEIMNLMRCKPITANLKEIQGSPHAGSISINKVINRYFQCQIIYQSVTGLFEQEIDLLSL
Particulars: TXTL; PAM NNAARCNN

Data set [4] deals with T3, OMNI-106 (metagenomic, unknown).
T3 sequence: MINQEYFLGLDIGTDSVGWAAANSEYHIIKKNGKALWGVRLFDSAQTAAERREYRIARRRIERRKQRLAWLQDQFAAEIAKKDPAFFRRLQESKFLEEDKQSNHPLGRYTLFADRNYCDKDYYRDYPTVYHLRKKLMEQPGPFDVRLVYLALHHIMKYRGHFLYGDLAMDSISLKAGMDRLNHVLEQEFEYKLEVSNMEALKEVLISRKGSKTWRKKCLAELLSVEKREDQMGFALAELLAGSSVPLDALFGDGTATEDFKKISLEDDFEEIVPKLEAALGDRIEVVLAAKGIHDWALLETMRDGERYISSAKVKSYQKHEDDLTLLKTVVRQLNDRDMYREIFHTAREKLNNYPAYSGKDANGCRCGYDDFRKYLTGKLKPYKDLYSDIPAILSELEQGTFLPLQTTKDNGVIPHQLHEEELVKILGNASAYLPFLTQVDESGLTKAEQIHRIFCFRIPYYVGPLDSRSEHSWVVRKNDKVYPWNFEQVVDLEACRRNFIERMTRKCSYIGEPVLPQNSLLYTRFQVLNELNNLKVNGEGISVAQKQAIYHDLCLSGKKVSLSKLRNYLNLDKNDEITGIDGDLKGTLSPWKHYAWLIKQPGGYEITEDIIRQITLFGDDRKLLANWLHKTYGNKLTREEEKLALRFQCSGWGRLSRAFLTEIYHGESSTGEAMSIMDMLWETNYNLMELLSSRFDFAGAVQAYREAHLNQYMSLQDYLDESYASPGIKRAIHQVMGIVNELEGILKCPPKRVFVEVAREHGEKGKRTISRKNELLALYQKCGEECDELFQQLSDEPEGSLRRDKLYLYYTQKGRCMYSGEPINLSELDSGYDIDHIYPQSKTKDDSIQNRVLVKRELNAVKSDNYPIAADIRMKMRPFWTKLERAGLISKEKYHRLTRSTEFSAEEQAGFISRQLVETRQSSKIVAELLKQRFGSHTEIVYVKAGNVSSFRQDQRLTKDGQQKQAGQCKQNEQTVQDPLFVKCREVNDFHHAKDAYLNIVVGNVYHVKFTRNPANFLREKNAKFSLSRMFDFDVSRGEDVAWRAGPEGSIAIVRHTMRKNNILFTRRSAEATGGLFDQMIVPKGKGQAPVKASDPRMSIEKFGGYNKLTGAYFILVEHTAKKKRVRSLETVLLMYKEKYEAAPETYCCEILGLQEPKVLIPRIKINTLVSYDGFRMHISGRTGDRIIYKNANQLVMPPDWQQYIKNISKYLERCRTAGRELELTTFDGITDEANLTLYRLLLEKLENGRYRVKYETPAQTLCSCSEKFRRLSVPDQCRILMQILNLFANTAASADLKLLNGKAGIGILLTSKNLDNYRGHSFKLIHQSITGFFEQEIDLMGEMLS
Particulars: TXTL; PAM NRKAACNN

Chain of OMNI-110 (metagenomic, unknown) (chain, as listed by the source): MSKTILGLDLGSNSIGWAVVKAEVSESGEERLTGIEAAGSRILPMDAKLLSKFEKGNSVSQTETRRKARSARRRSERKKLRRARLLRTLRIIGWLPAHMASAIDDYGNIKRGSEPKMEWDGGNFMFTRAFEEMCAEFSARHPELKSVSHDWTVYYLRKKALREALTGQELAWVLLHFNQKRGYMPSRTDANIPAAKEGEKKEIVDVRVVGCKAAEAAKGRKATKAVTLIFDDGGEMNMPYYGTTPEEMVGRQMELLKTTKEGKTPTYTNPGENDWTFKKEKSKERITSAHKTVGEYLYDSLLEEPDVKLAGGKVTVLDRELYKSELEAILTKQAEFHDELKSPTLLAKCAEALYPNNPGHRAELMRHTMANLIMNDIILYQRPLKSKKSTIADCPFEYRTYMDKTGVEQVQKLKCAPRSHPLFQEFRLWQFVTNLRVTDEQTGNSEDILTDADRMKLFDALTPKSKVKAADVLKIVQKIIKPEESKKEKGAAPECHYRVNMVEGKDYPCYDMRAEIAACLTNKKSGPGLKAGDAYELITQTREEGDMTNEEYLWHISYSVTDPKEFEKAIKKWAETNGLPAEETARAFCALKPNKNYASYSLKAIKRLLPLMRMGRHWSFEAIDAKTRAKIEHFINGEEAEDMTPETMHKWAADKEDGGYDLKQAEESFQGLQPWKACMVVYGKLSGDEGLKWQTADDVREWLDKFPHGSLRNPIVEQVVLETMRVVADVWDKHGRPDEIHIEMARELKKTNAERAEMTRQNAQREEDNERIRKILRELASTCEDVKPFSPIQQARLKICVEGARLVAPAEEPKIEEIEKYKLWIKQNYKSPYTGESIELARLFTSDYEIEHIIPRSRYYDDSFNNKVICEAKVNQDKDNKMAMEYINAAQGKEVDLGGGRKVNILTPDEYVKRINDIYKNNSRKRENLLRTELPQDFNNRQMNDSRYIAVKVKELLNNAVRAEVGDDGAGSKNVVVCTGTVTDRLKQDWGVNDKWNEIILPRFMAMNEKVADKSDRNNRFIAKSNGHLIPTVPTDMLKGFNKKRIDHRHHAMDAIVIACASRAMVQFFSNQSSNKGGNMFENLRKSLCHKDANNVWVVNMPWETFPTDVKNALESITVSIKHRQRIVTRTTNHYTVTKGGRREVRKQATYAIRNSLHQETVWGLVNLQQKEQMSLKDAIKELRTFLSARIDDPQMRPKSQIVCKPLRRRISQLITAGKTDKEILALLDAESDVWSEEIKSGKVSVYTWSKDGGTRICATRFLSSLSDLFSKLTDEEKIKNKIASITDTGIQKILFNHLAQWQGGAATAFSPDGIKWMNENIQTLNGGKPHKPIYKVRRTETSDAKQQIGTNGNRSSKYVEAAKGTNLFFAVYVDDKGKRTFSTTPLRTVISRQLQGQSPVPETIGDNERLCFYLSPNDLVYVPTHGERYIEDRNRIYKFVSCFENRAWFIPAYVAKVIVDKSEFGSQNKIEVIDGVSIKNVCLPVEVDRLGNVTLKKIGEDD

Turning to “GGAAGAGCAGAGCCUUGGUCUCGUUGUGAUUCGCUUCCGAAAGCAAGCGAAUCACAAUAAGGAUUAUUCCGUUGUGAAAACAUUUAAGUCGGGCCUCCUUCGGUUGGCUCGGCUUUUUUU / GGAAGAGCAGAGCCTTGGTCTCNNNNNNNN / NNNNNNNNGAGACCAAGGCTCTGCTCTTCC [T2 sgRNA 18 V1 ; T2 protospacer + 8N PAM library (pbPOS T2)]”, the activity (1-depletion score) in data set [1] is 0.95.

For the sequence “GGAAGAGCAGAGCCUUGGUCUCGUUGUGAAUUGCUUUCGAAAGAAGCAAUUCACAAUAAGGAUUAUUCCGUUGUGAAAACAUCAGGAGCGGGUUCUACUCGCUCUUUUUU / GGAAGAGCAGAGCCTTGGTCTCNNNNNNNN / NNNNNNNNGAGACCAAGGCTCTGCTCTTCC [T2 sgRNA 10 V1 ; T2 protospacer + 8N PAM library (pbPOS T2)]”, the activity (1-depletion score) in data set [2] is 0.93.

“GGAAGAGCAGAGCCUUGGUCUCGUUUGAGAGUAGUGUAAGAAAUUACACUACAAGUUCAAAUAAAAAUUUAUUCUAAUCGCUCUUCGGAGCCUCCACAGGAGUGGAUUUAAGACUUGCUUCGGCGAGUCUUUUUU / GGAAGAGCAGAGCCTTGGTCTCNNNNNNNN / NNNNNNNNGAGACCAAGGCTCTGCTCTTCC [T2 sgRNA 17 V1 ; T2 protospacer + 8N PAM library (pbPOS T2)]” returned an activity (1-depletion score) in data set [3] of 0.94.

In data set [4], “GGAAGAGCAGAGCCUUGGUCUCGUUUGAGAGUCGUGCUGGAAACAACACGACGGGUUCAAAUACGGCUUUGCCAAAACCGCUGGUUUGAUCCAGCUUCACAGUGUGUGAGGGUAAAAAGUCCGCUAUGCGGACUUUUUUU / GGAAGAGCAGAGCCTTGGTCTCNNNNNNNN / NNNNNNNNGAGACCAAGGCTCTGCTCTTCC [T2 sgRNA 15 V1 ; T2 protospacer + 8N PAM library (pbPOS T2)]” showed an activity (1-depletion score) of 0.95.

The values are drawn from patent publication US20240425885.
